Measurements reported in the Immune Epitope Database (IEDB).
pKd: −log10 of the molar value.

Tests used:
HLA-A*02:03 [1] = assay: IEDB peptide-MHC binding, purified MHC/direct/fluorescence; filed as Kd, often an IC50 or EC50 that approximates it; ≥ and ≤ were set here for values at or beyond the usual limits of such assays
HLA-B*15:01 [2] = assay: as above
HLA-B*18:01 [3] = assay: as above
HLA-A*02:12 [4] = assay: as above
HLA-A*23:01 [5] = assay: as above; conditions: source organism: Brucella suis 1330
HLA-B*57:01 [6] = assay: as above
HLA-A*03:01 [7] = assay: as above
HLA-A*26:01 [8] = assay: as above
HLA-B*15:17 [9] = assay: as above; conditions: source organism: Brucella suis 1330
HLA-A*02:19 [10] = assay: as above
HLA-B*27:03 [11] = assay: as above
HLA-B*46:01 [12] = assay: as above
HLA-A*68:02 [13] = assay: as above
HLA-A*02:01 [14] = assay: as above
HLA-A*02:16 [15] = assay: as above
HLA-A*69:01 [16] = assay: as above; conditions: source organism: Brucella suis 1330
HLA-B*51:01 [17] = assay: as above
HLA-A*24:03 [18] = assay: as above; conditions: source organism: Brucella suis 1330
HLA-A*29:02 [19] = assay: as above; conditions: source organism: Brucella suis 1330
HLA-B*48:01 = assay: IEDB peptide-MHC binding, purified MHC/competitive/fluorescence; filed as Kd, often an IC50 or EC50 that approximates it; ≥ and ≤ were set here for values at or beyond the usual limits of such assays
HLA-A*02:03 [20] = assay: as above
HLA-B*18:01 [21] = assay: as above
HLA-A*02:12 [22] = assay: as above
HLA-A*23:01 [23] = assay: as above; conditions: source organism: Vibrio vulnificus YJ016
HLA-A*02:11 = assay: as above
HLA-A*03:01 [24] = assay: as above
HLA-A*02:19 [25] = assay: as above
HLA-B*27:03 [26] = assay: as above
HLA-B*46:01 [27] = assay: as above
HLA-B*39:01 = assay: as above
HLA-A*02:01 [28] = assay: as above
HLA-A*02:16 [29] = assay: as above
HLA-A*69:01 [30] = assay: as above
HLA-A*24:03 [31] = assay: as above
HLA-A*29:02 [32] = assay: as above
HLA-C*03:03 = assay: IEDB peptide-MHC binding, purified MHC/direct/fluorescence; filed as Kd, often an IC50 or EC50 that approximates it; ≥ and ≤ were set here for values at or beyond the usual limits of such assays; conditions: source organism: Mycobacterium tuberculosis variant bovis BCG str. Pasteur 1173P2
HLA-C*05:01 = assay: as above; conditions: source organism: Mycobacterium tuberculosis variant bovis BCG str. Pasteur 1173P2
HLA-A*02:06 = assay: IEDB peptide-MHC binding, purified MHC/competitive/fluorescence; filed as Kd, often an IC50 or EC50 that approximates it; ≥ and ≤ were set here for values at or beyond the usual limits of such assays
HLA-B*15:01 [33] = assay: as above; conditions: source organism: Yersinia mollaretii ATCC 43969
HLA-B*57:01 [34] = assay: as above; conditions: source organism: Yersinia mollaretii ATCC 43969
HLA-A*26:01 [35] = assay: as above; conditions: source organism: Yersinia mollaretii ATCC 43969
HLA-B*15:17 [36] = assay: as above; conditions: source organism: Yersinia mollaretii ATCC 43969
HLA-A*68:02 [37] = assay: as above; conditions: source organism: Yersinia mollaretii ATCC 43969
HLA-B*51:01 [38] = assay: as above; conditions: source organism: Yersinia mollaretii ATCC 43969
[39] = source organism: Brucella suis 1330
[40] = source organism: Vibrio cholerae V52
[41] = source organism: Vibrio vulnificus YJ016
[42] = source organism: Mycobacterium tuberculosis variant bovis BCG str. Pasteur 1173P2
[43] = source organism: Yersinia mollaretii ATCC 43969
[44] = source organism: Human immunodeficiency virus 1

Which results are given for MHCDFAFWV?
pKd (HLA-A*02:03 [1]; [39]): ≤ 4.70; pKd (HLA-B*15:01 [2]; [39]): ≤ 4.70; pKd (HLA-B*18:01 [3]; [39]): ≤ 4.70; pKd (HLA-A*02:12 [4]; [39]): ≤ 4.70; pKd (HLA-A*23:01 [5]): ≤ 4.70; pKd (HLA-B*57:01 [6]; [39]): ≤ 4.70; pKd (HLA-A*03:01 [7]; [39]): ≤ 4.70; pKd (HLA-A*26:01 [8]; [39]): ≤ 4.70; pKd (HLA-B*15:17 [9]): ≤ 4.70; pKd (HLA-A*02:19 [10]; [39]): ≤ 4.70; pKd (HLA-B*27:03 [11]; [39]): ≤ 4.70; pKd (HLA-B*46:01 [12]; [39]): ≤ 4.70; pKd (HLA-A*68:02 [13]; [39]): ≤ 4.70; pKd (HLA-A*02:01 [14]; [39]): ≤ 4.70; pKd (HLA-A*02:16 [15]; [39]): ≤ 4.70; pKd (HLA-A*69:01 [16]): ≤ 4.70; pKd (HLA-B*51:01 [17]; [39]): ≤ 4.70; pKd (HLA-A*24:03 [18]): ≤ 4.70; pKd (HLA-A*29:02 [19]): ≤ 4.70

What does the source list for LPYPVLLKI?
pKd (HLA-A*02:03 [1]; [40]): ≤ 4.70; pKd (HLA-B*15:01 [2]; [40]): ≤ 4.70; pKd (HLA-B*18:01 [3]; [40]): ≤ 4.70; pKd (HLA-A*02:12 [4]; [40]): ≤ 4.70; pKd (HLA-B*57:01 [6]; [40]): ≤ 4.70; pKd (HLA-A*03:01 [7]; [40]): ≤ 4.70; pKd (HLA-A*26:01 [8]; [40]): ≤ 4.70; pKd (HLA-A*02:19 [10]; [40]): ≤ 4.70; pKd (HLA-B*27:03 [11]; [40]): ≤ 4.70; pKd (HLA-B*46:01 [12]; [40]): ≤ 4.70; pKd (HLA-A*68:02 [13]; [40]): ≤ 4.70; pKd (HLA-A*02:01 [14]; [40]): ≤ 4.70; pKd (HLA-A*02:16 [15]; [40]): ≤ 4.70; pKd (HLA-B*51:01 [17]; [40]): 7.27

With RRLRTLVLA as the sequence, how does the pKd (HLA-B*48:01; source organism: Tick-borne encephalitis virus) read?
The pKd was no more than 4.70.

How did the pKd (HLA-A*02:03 [20]; [41]) turn out when HTSALSLGY was run?
Its pKd is no more than 4.70.

And the pKd (HLA-B*18:01 [21]; [41])?
The pKd was no more than 4.70.

And the pKd (HLA-A*02:12 [22]; [41])?
The pKd was no more than 4.70.

What about the pKd (HLA-A*23:01 [23]) of the same sequence?
Its pKd is no more than 4.70.

What about the pKd (HLA-A*02:11; [41]) of the same sequence?
Its pKd is no more than 4.70.

And the pKd (HLA-A*03:01 [24]; [41])?
Its pKd is 7.75.

And the pKd (HLA-A*02:19 [25]; [41])?
The pKd was no more than 4.70.

And the pKd (HLA-B*27:03 [26]; [41])?
Its pKd is no more than 4.70.

And the pKd (HLA-B*46:01 [27]; [41])?
The pKd was no more than 4.70.

What about the pKd (HLA-B*39:01; [41]) of the same sequence?
Its pKd is no more than 4.70.

What about the pKd (HLA-A*02:01 [28]; [41]) of the same sequence?
Its pKd is no more than 4.70.

What about the pKd (HLA-A*02:16 [29]; [41]) of the same sequence?
Its pKd is no more than 4.70.

And the pKd (HLA-A*69:01 [30]; [41])?
The pKd was no more than 4.70.

And the pKd (HLA-A*24:03 [31]; [41])?
Its pKd is no more than 4.70.

And the pKd (HLA-A*29:02 [32]; [41])?
The pKd was no less than 10.00.

What does the source list for YLAEGHACL?
pKd (HLA-C*03:03): 8.70; pKd (HLA-C*05:01): 6.82; pKd (HLA-A*02:03 [20]; [42]): ≥ 9.00; pKd (HLA-A*02:06; [42]): ≥ 9.00; pKd (HLA-A*02:12 [22]; [42]): 8.59; pKd (HLA-A*02:11; [42]): ≥ 9.00; pKd (HLA-A*02:19 [25]; [42]): 8.48; pKd (HLA-A*02:16 [29]; [42]): ≥ 9.00; pKd (HLA-A*69:01 [30]; [42]): 6.42

With DEQEFFYSQ as the sequence, how does the pKd (HLA-A*02:03 [20]; [43]) read?
Its pKd is no more than 4.70.

What about the pKd (HLA-B*15:01 [33]) of the same sequence?
Its pKd is no more than 4.70.

And the pKd (HLA-B*18:01 [21]; [43])?
The pKd was 9.52.

What about the pKd (HLA-A*02:12 [22]; [43]) of the same sequence?
The pKd was no more than 4.70.

And the pKd (HLA-A*02:11; [43])?
The pKd was no more than 4.70.

And the pKd (HLA-B*57:01 [34])?
The pKd was no more than 4.70.

And the pKd (HLA-A*03:01 [24]; [43])?
The pKd was no more than 4.70.

And the pKd (HLA-A*26:01 [35])?
The pKd was no more than 4.70.

And the pKd (HLA-B*15:17 [36])?
Its pKd is no more than 4.70.

What about the pKd (HLA-A*02:19 [25]; [43]) of the same sequence?
The pKd was no more than 4.70.

What about the pKd (HLA-B*27:03 [26]; [43]) of the same sequence?
The pKd was no more than 4.70.

What about the pKd (HLA-B*46:01 [27]; [43]) of the same sequence?
The pKd was no more than 4.70.

What about the pKd (HLA-A*68:02 [37]) of the same sequence?
The pKd was no more than 4.70.

And the pKd (HLA-B*39:01; [43])?
The pKd was no more than 4.70.

What about the pKd (HLA-A*02:01 [28]; [43]) of the same sequence?
The pKd was no more than 4.70.

And the pKd (HLA-A*02:16 [29]; [43])?
The pKd was no more than 4.70.

What about the pKd (HLA-A*69:01 [30]; [43]) of the same sequence?
The pKd was no more than 4.70.

What about the pKd (HLA-B*51:01 [38]) of the same sequence?
Its pKd is no more than 4.70.

What about the pKd (HLA-A*24:03 [31]; [43]) of the same sequence?
The pKd was no more than 4.70.

And the pKd (HLA-A*29:02 [32]; [43])?
The pKd was no more than 4.70.

FLGKIWSS was tested. Which pKd (HLA-A*02:03 [20]; [44]) did it give?
Its pKd is 8.86.

What about the pKd (HLA-A*02:06; [44]) of the same sequence?
Its pKd is no less than 10.00.

What about the pKd (HLA-A*02:12 [22]; [44]) of the same sequence?
Its pKd is 9.30.

And the pKd (HLA-A*02:11; [44])?
Its pKd is no less than 10.00.

And the pKd (HLA-A*02:19 [25]; [44])?
The pKd was 8.63.

And the pKd (HLA-A*02:01 [28]; [44])?
The pKd was 8.12.

What about the pKd (HLA-A*02:16 [29]; [44]) of the same sequence?
Its pKd is no less than 10.00.

What about the pKd (HLA-A*69:01 [30]; [44]) of the same sequence?
Its pKd is no more than 5.30.

KRAAAGIMK was tested. Which pKd (HLA-B*48:01; source organism: Dengue virus 2 Thailand/NGS-C/1944) did it give?
Its pKd is no more than 4.70.
